The text below walks through data of doi:10.1101/521351 (bioRxiv, 2019).

The term stoichiometry N denotes a count of units in the complex or per binding partner.

Series [1] addresses ICA512 RESP18HD (regulated endocrine-specific protein 18 homology domain of ICA512, residues 35-131) (human) (UniProt Q16849). The series can be described thus: co-sedimentation.
The series “light scattering” deals with the molecule itself. The series can be described thus: light scattering.

As for Human insulin (ligand), the stoichiometry N is 0.4 in series [1] (scale: mole of insulin per mole of ICA512 RESP18HD) and 2.8 in series [1] (scale: moles of insulin per mole of ICA512 RESP18HD).

B1: ICA512 RESP18HD (regulated endocrine-specific protein 18 homology domain of ICA512, residues 35-131) (domain or fragment, human, UniProt Q16849 35-131, looked up)
chain: VSAHGCLFDRRLCSHLEVCIQDGLFGQCQVGVGQARPLLQVTSPVLQRLQGVLRQLMSQGLSWHDDLTQYVISQEMERIPRLRPPEPRPRDRSGLAP
B1: in the series “light scattering”, the binding result is given as “binds”.
